Experiments:
[1] = target: extended construct of the non-phosphorylated Smad2 MH2 domain (S2LMH2); assay: SAXS with ensemble optimization method
[2] = target: full-length phosphomimetic Smad2 (S2FLEEE) (UniProt Q15796); assay: SAXS with ensemble optimization method

full-length phosphomimetic Smad2 (S2FLEEE) (from UniProt Q15796 1-467) (natural protein), sequence (Q15796 whole entry): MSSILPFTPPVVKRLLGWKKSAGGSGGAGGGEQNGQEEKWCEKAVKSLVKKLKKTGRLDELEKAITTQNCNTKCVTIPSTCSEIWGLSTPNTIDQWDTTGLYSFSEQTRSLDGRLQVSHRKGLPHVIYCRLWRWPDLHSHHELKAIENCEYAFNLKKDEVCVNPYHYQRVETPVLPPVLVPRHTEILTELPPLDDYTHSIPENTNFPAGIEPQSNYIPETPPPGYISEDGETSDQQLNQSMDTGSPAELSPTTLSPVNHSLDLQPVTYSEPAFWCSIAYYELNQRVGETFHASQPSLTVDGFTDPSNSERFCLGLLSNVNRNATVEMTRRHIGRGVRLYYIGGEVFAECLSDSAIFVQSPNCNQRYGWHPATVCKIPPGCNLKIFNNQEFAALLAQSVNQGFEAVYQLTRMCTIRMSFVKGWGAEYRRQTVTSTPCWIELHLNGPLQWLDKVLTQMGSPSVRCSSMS
extended construct of the non-phosphorylated Smad2 MH2 domain (S2LMH2) (domain or fragment), sequence (Q15796 269-467): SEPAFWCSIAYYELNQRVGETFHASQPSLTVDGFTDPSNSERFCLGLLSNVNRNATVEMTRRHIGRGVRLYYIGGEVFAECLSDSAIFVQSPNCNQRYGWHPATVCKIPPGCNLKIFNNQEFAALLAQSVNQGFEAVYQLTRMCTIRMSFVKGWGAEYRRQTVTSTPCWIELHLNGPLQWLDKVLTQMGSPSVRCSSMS

percent of the total population as trimer at 15 and 30 μM [1] | stoichiometry N [1] | percent of the population as dimer at all concentrations analyzed [2] | percent of the population as trimer at 28.1 μM [2] | Substance
50% | 3 | – | – | extended construct of the non-phosphorylated Smad2 MH2 domain (S2LMH2) (domain or fragment)
– | – | 36% | 44.8% | full-length phosphomimetic Smad2 (S2FLEEE) (from UniProt Q15796 1-467) (natural protein)
